Results on 4 substances are retold here after article doi:10.1101/2023.10.13.562012.

What all share (assay): cryo-EM structure
Experiment [1] has as its target tonoplast intrinsic protein TIP2;1 (spinach (endogenous in leaves)).
For experiment [2], the target named is tonoplast intrinsic protein TIP1;1 (spinach (endogenous in leaves)).
Experiment [3] has as its target chloroplast carbonic anhydrase (CA) (spinach (endogenous in leaves)).
Experiment [4] deals with LHC-II complex (spinach (endogenous in leaves)).
Experiment [5] has as its target Rubisco (spinach (endogenous in leaves)).

With “tonoplast intrinsic protein TIP1;1 (natural protein)”, the stoichiometry N in experiment [1] turned out to be 3; in experiment [2], 4.
“chloroplast carbonic anhydrase (CA) (enzyme)” came in with a stoichiometry N in experiment [3] of 8.
LHC-II complex (natural protein): in experiment [4], the stoichiometry N came to 3.
In experiment [5], Rubisco (complex) displayed a stoichiometry N of 8.
